In PMC6004067 (Genes & Development, 2018):
Positions count from the first letter of the chain named. Numbers in names are those of the source.

Experiments:
Conditions in all cases: both partners purified
[1] = target: T1, TATA-box-binding protein (TBP), full-length human (human, UniProt P20226 1-339); assay: pull-down; Flag-tagged TFIIB or its mutants immobilized on Flag beads; TBP or SNAPc as analyte; buffer B2, 1 h at 4°C, four washes, Western blot
T1 construct: human TBP, full length; Two preparations of free TBP are described (Flag/His double-tagged; GST-TBP cleaved with thrombin); also called wild-type TBP; source: E. coli BL21 (DE3), purified (Ni-NTA as Flag- and His-tagged protein, or cut with thrombin from GST-TBP)

[2] = target: T2, GST-TBP, GST-tagged full-length human TBP (human, UniProt P20226 1-339); assay: pull-down; GST pull-down: GST-TBP, GST-TFIIB or TBP fragments on glutathione beads; analytes in buffer B2 (150 mM NaCl), 1 h at 4°C, four washes, Western blot
T2 construct: human TBP, full length

[3] = target: T1, TATA-box-binding protein (TBP), …; assay: as above

T1 sequence (P20226 whole entry): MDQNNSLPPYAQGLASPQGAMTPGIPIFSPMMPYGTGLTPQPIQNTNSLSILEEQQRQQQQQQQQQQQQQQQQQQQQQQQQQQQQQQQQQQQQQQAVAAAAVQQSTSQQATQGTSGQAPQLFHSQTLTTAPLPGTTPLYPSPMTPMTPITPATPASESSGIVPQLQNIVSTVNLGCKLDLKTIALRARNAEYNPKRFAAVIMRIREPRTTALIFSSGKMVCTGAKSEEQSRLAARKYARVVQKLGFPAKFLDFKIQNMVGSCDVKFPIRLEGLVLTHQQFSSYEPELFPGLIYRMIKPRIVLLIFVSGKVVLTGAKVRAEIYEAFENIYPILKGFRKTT
T2 sequence (P20226 whole entry, the tested form may be a part): as the sequence (P20226 whole entry) above

B1: TFIIB, full-length human, Flag- and His-tagged (natural protein, UniProt Q00403 1-316, looked up)
chain: MASTSRLDALPRVTCPNHPDAILVEDYRAGDMICPECGLVVGDRVIDVGSEWRTFSNDKATKDPSRVGDSQNPLLSDGDLSTMIGKGTGAASFDEFGNSKYQNRRTMSSSDRAMMNAFKEITTMADRINLPRNIVDRTNNLFKQVYEQKSLKGRANDAIASACLYIACRQEGVPRTFKEICAVSRISKKEIGRCFKLILKALETSVDLITTGDFMSRFCSNLCLPKQVQMAATHIARKAVELDLVPGRSPISVAAAAIYMASQASAEKRTQKEIGDIAGVADVTIRQSYRLIYPRAPDLFPTDFKFDTPVDKLPQL
notes: human TFIIB, full length; also called Flag-tagged TFIIB; wild-type TFIIB; source: E. coli BL21 (DE3), purified (Ni-NTA)
- binding result [1]: binds
- binding result [2]: binds

B2: TFIIB R169E/K188E, Flag-tagged (natural protein, human, UniProt Q00403 1-316, looked up)
chain: B1 chain with R169E, K188E
notes: human TFIIB with the double R169E/K188E substitution; Probably made as the full-length parent; also called double substitution
- binding result [1]: binds

B3: TFIIB R169E, Flag-tagged (natural protein, human, UniProt Q00403 1-316, looked up)
chain: B1 chain with R169E
notes: human TFIIB with a single R169E substitution; Probably made as the full-length parent
- binding result [1]: binds

B4: GST-TFIIB (natural protein, human, UniProt Q00403 1-316, looked up)
chain: B1 chain
notes: TFIIB fused to GST
- binding result [3]: binds
